Reference: patent US20140271651A1 (AbbVie / Abbott, published 2014)

B1: anti-GP73 monoclonal antibody 1B-4971 (antibody, V domains shown)
VH: QVQLQQSGPALVKPGASVKMSCKASGYTFTNYVIHWVKQKPGQGLERIGYIWPYNDGTKFNEKFKGKATLTSDKSSSTAYMELSSLTSEDSAVYYCSSQQLAYWGQGTTLTVSS
VL: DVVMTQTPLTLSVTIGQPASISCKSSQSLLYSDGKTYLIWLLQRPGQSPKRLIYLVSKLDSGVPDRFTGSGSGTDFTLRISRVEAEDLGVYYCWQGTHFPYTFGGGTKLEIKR
notes: Biotin labelled in some assays; also called mAb 1B-4971; 1B-4971-Bt
B2: anti-GP73 monoclonal antibody 1B-3440 (antibody, V domains shown)
VH: EVQLVETGGGLVQPKGSLKLSCAASGFTFNTNAMNWVRQAPGKGLEWVARIRTKRYNYTTFYADSVKDRFTISRDDSQSMLFLQMNNLKTEDTAMYYCVTGGTGTFDYWGQGTTLTVSS
VL: EIVLTQSPTTMPASPGEKVTFTCSASSGISSNYLHWYQLKPGFSPKLLIYRTSNLASGVPARFSGGGSGTSYSLTIGTMEAEDVATYYCQQGFSIPLTFGAGTKLELKR
notes: Biotin labelled in some assays; also called mAb 1B-3440; 1B-3440-Bt
B3: anti-GP73 monoclonal antibody 1B-4863 (antibody, V domains shown)
VH: QVQLKESGPGLVAPSQSLSITCTVSGFSLTSYGVHWVRQSPGKGLEWLGVIWTGGSTNYNSALMSRLSISKDNSESQVFLKVNSLQTDDTGMYYCARDPGTDYFDYWGQGTTLTVSS
VL: DIVMTQSHKFMSTSIGDRVSISCKASQDVSIDVSWYQQKPGQSPTLLIYSASYRYIGVPDRFTGSGSGTAFTFTISSVQAEDLAIYYCQQHFTTPLTFGAGTKLELKR
notes: Biotin labelled in some assays; also called mAb 1B-4863; 1B-4863-Bt

Columns and labels:
[1] = target: T1, GP73-hFc (human GP73 amino acids 63 to 400 fused at the C-terminus to human IgG1 Fc) (human); test: SPR Biacore 2000, mAb captured on rabbit anti-mouse IgG, HEK GP73-hFc analyte 0.412-100 nM, 1:1 fit
T1 construct: Expressed in HEK293F, CHO or HepG2 cells; the host is named under assay; also called HEK expressed GP73-hFc; CHO expressed GP73-hFc
T1 chain: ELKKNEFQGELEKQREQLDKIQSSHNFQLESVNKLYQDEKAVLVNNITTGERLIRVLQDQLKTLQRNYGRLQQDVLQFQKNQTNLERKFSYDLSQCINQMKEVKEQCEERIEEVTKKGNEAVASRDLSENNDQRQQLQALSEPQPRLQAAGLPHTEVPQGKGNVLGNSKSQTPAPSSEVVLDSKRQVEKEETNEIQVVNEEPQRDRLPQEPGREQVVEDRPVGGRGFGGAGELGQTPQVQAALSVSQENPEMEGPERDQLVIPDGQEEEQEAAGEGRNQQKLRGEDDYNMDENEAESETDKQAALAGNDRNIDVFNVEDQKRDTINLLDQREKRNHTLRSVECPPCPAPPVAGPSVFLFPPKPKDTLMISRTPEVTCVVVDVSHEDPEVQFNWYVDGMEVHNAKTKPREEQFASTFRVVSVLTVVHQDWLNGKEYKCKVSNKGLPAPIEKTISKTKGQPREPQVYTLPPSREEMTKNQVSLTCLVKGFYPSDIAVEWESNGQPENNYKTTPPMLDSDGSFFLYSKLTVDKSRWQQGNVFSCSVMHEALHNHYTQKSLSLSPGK
Method: First, an approximately 13,000-15,000 RU rabbit anti-mouse IgG Capture Biosensor was created by amine-coupling rabbit anti-mouse IgG antibody (GE Healthcare) to a CM5 biosensor chip (GE Healthcare) via EDC/NHS/ethanolamine chemistry provided in an Amine Coupling Kit (GE Healthcare) after pre-treating the biosensor with duplicate injections of 100 mM HCl, 50 mM NaOH, and 0.1% SDS. Purified GP73 antibody and antigen (HEK GP73-hFc) were diluted into a running buffer (hereinafter “running buffer”) composed of HBS-EP buffer (GE Healthcare) supplemented with 0.1% BSA and 0.1% CM-Dextran. Each GP73 antibody was diluted to 1 μg/mL. The GP73-hFc antigen was diluted to concentrations of 0.412 to 100 nM using a 3-fold dilution series assuming an oligomeric molecular weight of 490 kDa (Abbott Laboratories).
The GP73-hFc antigen program was as follows. After equilibrating the rabbit anti-mouse IgG Capture Biosensor for 3 min at 5 μL/minute with running buffer, GP73 antibody (7-14 μL) was injected over individual flow cells with one flow cell being left blank as a reference flow cell. The flow cells were washed with running buffer for 3 min at a flow rate of 60 μL/min. 150 μL of HEK293 expressed GP73-hFc antigen at a random concentration was injected across the biosensor. The biosensor was subsequently re-equilibrated with running buffer for 5 min at a flow rate of 60 μL/minute. All biosensor surfaces were regenerated with one 30 μL injection of 10 mM glycine, pH 1.7 (GE Healthcare), at a flow rate of 10 μL/minute. All concentrations of HEK293 expressed antigen were tested in duplicate. The binding kinetics (association and dissociation) were monitored via sensorgrams during antigen injection and running buffer re-equilibration. The sensorgrams were double-referenced and fit to a 1:1 binding model using Scrubber 2.0 software (BioLogic Software Pty Ltd., Australia) to determine association and dissociation rates, as well as overall KD. Standard errors of determined values are reported in parentheses with respect to the smallest number place value.

bovine serum albumin [2] = target: T2, bovine serum albumin (bovine, UniProt P02769 25-607); test: sandwich EIA, rabbit anti-GP73 coated 1 ug/mL, BSA background, supernatant 1:125, HRP goat anti-mouse IgG Fc
T2 construct: also called BSA
Method: (§1) Cell supernatant samples were analyzed for anti-GP73 antibodies by EIA. Sheep anti-mouse IgG Fc (Jackson Immunoresearch) was coated on 96 well micro-titer EIA plates at 1 μg/mL. After the capture reagent was coated on the solid phase, it was removed and the plates were blocked using a BSA/PBS block solution. The wells were washed with distilled water and cell supernatants were added to the blocked plates and allowed to incubate at room temperature for at least one hour. A mouse monoclonal antibody 14H4-23 (Drexel University) was used a positive control. The anti-mouse IgG Fc captured the anti-GP73 mouse antibody from the supernatant. Following the incubation, the supernatants were washed off using distilled water. An irrelevant mouse-human chimeric antibody was added to all wells and incubated at room temperature for 30 min to block any captured mouse antibodies that react with the human IgG Fc fusion protein linked to the GP73 antigen. The wells were washed with distilled water and GP73-hFc was added to the plates at 200 ng/mL and incubated for 30 min. Following this incubation, the antigen was washed from the plates using distilled water. Biotin labeled goat anti-GP73 was added to the plates at 200 ng/mL and incubated for 30 min at room temperature. The plates were washed and streptavidin-HRPO (Jackson Immunoresearch) (diluted to approximately 200 ng/mL) was added to the plates and allowed to incubate for 30 min. The plates were washed with distilled water and OPD substrate was used as the chromagen to generate signal. Plates were read at 492 nm and the results were analyzed.
The 24 well cultures were then evaluated by EIA for their ability to form a sandwich with the rabbit anti-GP73 used as a capture reagent coated directly on the solid phase. The same EIA protocol previously described was used, except rabbit anti-GP73 antibody was coated at 1 μg/mL, the GP73-hFc was tested at 200 ng/mL, and a HRP labeled goat anti-mouse IgG FC antibody was used as the conjugate reagent to generate signal.

[3] = target: T1, GP73-hFc (human GP73 amino acids 63 to …); test: EIA, supernatant mAb captured on sheep anti-mouse IgG Fc, GP73-hFc 200 ng/mL, biotin goat anti-GP73/streptavidin-HRPO; background 0.06
Method: as §1

[4] = target: T1, GP73-hFc (human GP73 amino acids 63 to …); test: EIA, supernatant 1:25 captured on sheep anti-mouse IgG Fc, GP73-hFc, biotin goat anti-GP73
Method: as §1
(§2) Positive clones were expanded to 24 well plates in IMDM supplemented with 10% FBS and HT supplement. Following 5-14 days growth, the 24 well cultures were evaluated by EIA in the same manner as previously described, except the supernatant samples were titrated against GP73-hFc and BSA to eliminate non-specific protein binders. Once again the clones generating signal at least 3 times greater than background were considered positive and selected for further evaluation.

bovine serum albumin [5] = target: T2, bovine serum albumin; test: EIA, supernatant 1:25 captured on sheep anti-mouse IgG Fc, BSA in place of antigen
Method: as §1, §2

T2 sequence (P02769 25-607 limits assumed): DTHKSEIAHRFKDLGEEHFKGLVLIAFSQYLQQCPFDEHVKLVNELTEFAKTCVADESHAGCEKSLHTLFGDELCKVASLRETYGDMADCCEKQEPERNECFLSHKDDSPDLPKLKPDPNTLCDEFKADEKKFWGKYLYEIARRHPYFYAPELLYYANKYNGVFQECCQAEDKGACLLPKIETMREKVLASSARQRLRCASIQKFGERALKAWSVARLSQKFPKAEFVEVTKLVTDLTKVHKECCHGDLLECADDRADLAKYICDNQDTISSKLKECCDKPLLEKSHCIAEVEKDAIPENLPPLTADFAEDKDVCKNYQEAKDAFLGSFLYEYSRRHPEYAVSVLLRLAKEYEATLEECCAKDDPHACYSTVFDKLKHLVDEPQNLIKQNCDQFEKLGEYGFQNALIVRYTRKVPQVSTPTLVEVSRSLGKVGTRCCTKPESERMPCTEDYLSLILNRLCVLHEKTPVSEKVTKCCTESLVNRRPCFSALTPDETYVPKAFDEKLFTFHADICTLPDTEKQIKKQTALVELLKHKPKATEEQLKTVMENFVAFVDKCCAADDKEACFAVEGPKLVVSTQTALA

Binder	Kd [1]	kon [1]	BSA Background OD (A492) (bovine serum albumin [2])	OD (A492) [3]	GP73-hFc OD (A492) [4]	BSA Background OD (A492) (bovine serum albumin [5])	koff [1]
B1	≤ 0.002 nM	3.9e+06 M⁻¹ s⁻¹	0.1 OD (A492)	1.79 OD (A492)	2.1 OD (A492)	0.1 OD (A492)	
B2	0.091 nM	1.98e+06 M⁻¹ s⁻¹	0.12 OD (A492)	1.46 OD (A492)	1.51 OD (A492)	0.09 OD (A492)	0.00018 s⁻¹
B3	0.12 nM	2.06e+06 M⁻¹ s⁻¹	0.1 OD (A492)	1.44 OD (A492)	1.61 OD (A492)	0.06 OD (A492)	0.00025 s⁻¹
